This passage reports Kd results from publication PMC3466194.

The series deals with TetR (Tet Repressor) (UniProt P04483). As to the kind of experiment: not stated in material (in vitro binding). As to conditions: not given in the material held (binding assay methods absent).
Chain of TetR (Tet Repressor) (P04483 whole entry): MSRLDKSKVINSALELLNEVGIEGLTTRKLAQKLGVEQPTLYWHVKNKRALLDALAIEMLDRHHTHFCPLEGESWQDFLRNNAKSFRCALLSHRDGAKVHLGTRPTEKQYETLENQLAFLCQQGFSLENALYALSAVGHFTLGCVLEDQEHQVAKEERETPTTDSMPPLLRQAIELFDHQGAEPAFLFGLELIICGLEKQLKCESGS

Sequence “GGGCUUGUUACCAGACAACCAUUACUUAUCCUAUCAAUCUGCCUUAUCCAAAGAUCCAAACGAAAAGAGAGACCACAUGGUCUUGUUAGAAUUUGUUACUUAAUCUAGAAAUUAUCUAGGAUCCAGGCAGAGAAAGGUCGAUACGGACGGAAUGUGAUGGCCUGGAUCCAACACAAAACUCGAGAACAUCCCGGGAAAAUCUAGAAUUCCUUCGAUAGAUCAAUUUUUUUCUUUUCUCUUUCCCCAUCCUUUACGCUAAAAUAAUAGUUUAUUUUAUUUUUUGAAUAUUUUUUAUUUAUAUACGUAUAUAUAGACUAUUAUUUAUCUUUUAAUGAUU [3'UTR + aptamer (vYFPΔ-5-1.2 bases 613-946)]” came in with a Kd of 0.8 nM.
